Substrate in data set [1]: CC(=O)N[C@H](C(=O)N[C@@H](CC(C)C)C(=O)NCC(=O)N[C@@H](CCCCN)C(=O)Nc1ccc2c(C)cc(=O)oc2c1)C(C)C
Put plainly: Fluorogenic AMC release. The class given is biochemical. The conditions noted are these: pH 7.4; 25.0 °C.

Substrate in data set [2]: CC(=O)N[C@H](C(=O)N[C@@H](CC(C)C)C(=O)N[C@H](C(=O)N[C@@H](CCCCN)C(=O)Nc1ccc2c(C)cc(=O)oc2c1)[C@@H](C)O)C(C)C
Briefly: Fluorogenic AMC release. Format: biochemical. Conditions: pH 7.4; 25.0 °C.

B1: PmC11 (Parabacteroides merdae) (protein)
chain: ETPEPRTTRTILVYMMANNSLNSFASKNIESMIEGATSKNLNGGNLIVYYAPAGSPPELLRIKEENGVVKKIHLKDYEKQNSADPDVMRSVIGEVVSQYPADSYGLVLWSHGTAWLPSDYQNKLKAFGQDGNNWMEIDDLAKGLPDDLFDFILFDACYMASVECTYELRNKAEYILASPTETMADGWPYEEMMPQLFATDLQLEKVGETFYNHYLNNTYPYATVSLTKTSELDNLKSVTHDILADKTESDIYSLDPKKMQRLEYLYRSPGMLYDFNDYIKQLATAEQYDRFISCLDKAVVYKAHTPKSYYAAIGNALPIKSYCGLTIFVPQESLPKMLEWYKQRVGWYKAVYE
As for B1, the Michaelis constant (Km) in data set [1] is approximately 185.8 µM; in data set [2] it was 20.4 µM.

Source of the values: paper PMC5575927.
